Experimental findings from patent publication US20220324922A1 are described below.

The assay concerns the target GluN2B-containing NMDA receptor (GluN1a/GluN2B). Nature of the assay: cell-based or functional assay.

B1: Con-G-like APP (cAPP) (peptide)
peptide: ADTDYADGSEDKVVE
Turning to B1, the inhibition of receptor currents, two-electrode voltage clamp, Xenopus oocytes was under 30%.
